“And” between values parts separate entries of the source, which are not always exact repeats. Equal values may be shown once.
Target: the molecule itself
Test: SDS-PAGE and immunoblot (SDS-resistant forms); ghosts of healthy and infected RBCs in 5P8 buffer, solubilised in 1% Triton X-100, denaturing SDS-PAGE, immunoblot; oligomeric state read from the size of the bands

B1: TranSlocator PrOtein 2 (TSPO2) (natural protein, human (endogenous in red blood cells), UniProt Q5TGU0 1-170, looked up)
chain: MRLQGAIFVLLPHLGPILVWLFTRDHMSGWCEGPRMLSWCPFYKVLLLVQTAIYSVVGYASYLVWKDLGGGLGWPLALPLGLYAVQLTISWTVLVLFFTVHNPGLALLHLLLLYGLVVSTALIWHPINKLAALLLLPYLAWLTVTSALTYHLWRDSLCPVHQPQPTEKSD
notes: TSPO2, human, second TSPO isoform, endogenous in mature red blood cells; detected with a rabbit antibody against the 13 C-terminal residues of hTSPO2; also called hTSPO2; source: endogenous, human red blood cell membranes (ghosts) or Triton X-100 lysate of healthy and P. falciparum-infected RBCs
stoichiometry N: 4 and 2

From article PMC5027585, “TSPO ligands stimulate ZnPPIX transport and ROS accumulation leading to the inhibition of P. falciparum growth in human blood” (Scientific Reports, 2016)
